B1: gHC+LC (antibody, V domains shown)
VH: not shown
VL: EIVLTQSPGTLSLSPGETAIISCRTSQYGSLAWYQQRPGQAPRLVIYSGSTRAAGIPDRFSGSRWGPDYNLTISNLESGDFGVYYCQQYEFFGQGTKVQVDI
B2: HC+gLC (antibody, V domains shown)
VH: QVQLVQSGGQMKKPGESMRISCRASGYEFIDCTLNWIRLAPGKRPEWMGWLKPRGGAVNYARPLQGRVTMTRDVYSDTAFLELRSLTVDDTAVYFCTRGKNCDYNWDFEHWGRGTPVIVSS
VL: EIVLTQSPATLSLSPGERATLSCRASQYSVSSYLAWYQQKPGQAPRLLIYDASNRATGIPARFSGSGSGRDFTLTISSLEPEDFAVYYCQQFGQGTKLEIK
B3: gHC+gLC (antibody, V domains shown)
VH: not shown
VL: B2 VL
B4: 2F5 wild-type IgG (antibody, V domains shown)
VH: RITLKESGPPLVKPTQTLTLTCSFSGFSLSDFGVGVGWIRQPPGKALEWLAIIYSDDDKRYSPSLNTRLTITKDTSKNQVVLVMTRVSPVDTATYFCAHRRGPTTLFGVPIARGPVNAMDVWGQGITVTISS
VL: ALQLTQSPSSLSASVGDRITITCRASQGVTSALAWYRQKPGSPPQLLIYDASSLESGVPSRFSGSGSGTEFTLTISTLRPEDFATYYCQQLHFYPHTFGGGTRVDVRR

Columns and labels:
HXBc2 = experiment: ELISA
[1] = target: gp41 MPER peptide (residues 657 to 669 of gp41) linked to a C-terminal C9 tag; experiment: SPR

| Binder | EC50 (HXBc2) [µg/mL] | Kd [1] [nM] |
| --- | --- | --- |
| B1 | 21.4 |  |
| B2 | 2.14 |  |
| B3 | > 50 |  |
| B4 |  | 9.5 |

Reference: US20160009789A1 (published 2016)
